The source of these data is the supplement of paper PMC9170038.

In the data set the test system is MS2 coat protein. Description: apparent KD of MS2 coat protein; designed switch direction (-1 OFF switch, 1 ON switch): -1; higher = weaker reporter binding. A digest of the protocol:
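The apparent KD reported per design is the median over clusters of curve fits to normalised cluster fluorescence. The RNA switches were transcribed on Illumina chips by stalled E. coli RNA polymerase. SNAP-549-labelled MS2 coat protein was titrated from 0.7 or 1.5 nM, doubling up to 3 µM, in Tris-HCl pH 7.5 buffer containing KCl, MgCl2, BSA, DTT, tRNA and Tween-20, with no input, 200 uM small-molecule ligand, or an oligonucleotide input.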

Where [1] appears, read: Eterna round: R95, input ligand: FMN 200 uM.
Where [2] appears, read: Eterna round: R95, input ligand: microRNA oligo, concentration not stated.
The mark [3] stands for this setting: Eterna round: R95, input ligand: none.
Setting [4] is: input ligand: microRNA oligo, concentration not stated.

Regarding “CAGUACUGAGGAUAUACAUGAGGAUCACCCAUGUGUCCCAGCUAGGAAACUAGCAAAAGUAGAAGGCAGUACUG [Fiskers Ex 3 828 mod 1] (puzzle: Exclusion 3)”, the “apparent KD of MS2 coat protein” value by setting is: under setting [1], 420 nM; under setting [2], 24.4 nM; under setting [3], 24.5 nM.
In the same order, the values of “CUUAGACAUGAGGAUCACCCAUGUGAGGAUAUGAAAUUAAUUAAGUAUGAAGUAUGAAUCAGAAGGCACAUAUG [Mat - Mod of Hyphema D34] (puzzle: Exclusion 1)” are 61.7 nM, 92.1 nM and 81.6 nM.
For the sequence “AUUAAACGUGUAGGAUAUGCGUGGCGAAGCUAUGCAGAAGGACAUGAGGAUCACCCAUGUUCUAGCGUCUGCGUACAGAUGCUA [JL eng1 1.35 mod 5] (Eterna round: R96, puzzle: Exclusion NG 1)”, the “apparent KD of MS2 coat protein” value (input ligand: FMN 200 uM) is 25.1 nM, the “apparent KD of MS2 coat protein” value under setting [4] stood at 11.4 nM and the “apparent KD of MS2 coat protein” value (input ligand: none) turned out to be 16.3 nM.
In the case of “AAUAACAGAGGAUAUACUAAAAUAUGAAUAAAAUAAAUAAAACAUGAGGAUCACCCAUGUAGAAGGCUGAAUAA [JMF's Not so obvious solution 7] (puzzle: Exclusion 2)”, the “apparent KD of MS2 coat protein” value is, setting by setting: under setting [1], 26 nM; under setting [2], 29.3 nM; under setting [3], 25 nM.
In the case of “UGUACGAUGCGUGCUGACAUGCGUCGUGCAGCAGGUGAUACAUGAGGAUCACCCAUGUCCUCAUUUGCUCGUCUAGU [Mat - Sensor v3 - Turn-off var 2 - D24] (puzzle: Sensor v3, turn-off variant 2)”, the “apparent KD of MS2 coat protein” value under setting [1] is 72.5 nM, the “apparent KD of MS2 coat protein” value under setting [2] came out at 467 nM and the “apparent KD of MS2 coat protein” value under setting [3] was 78.4 nM.
With “GGUAUGGCCACAGGAUAUUGAGCCACAUGAGGAUCACCCAUGUGAGGACGUAGAAUCGCCUGGCCCAAGAAGGGUGAAGCCCAU [Eternabot solution 4] (Eterna round: R96, puzzle: Exclusion NG 2)”, the “apparent KD of MS2 coat protein” value is 17.1 nM (input ligand: FMN 200 uM), 13.1 nM under setting [4] and 28 nM (input ligand: none).
Regarding “ACUUAUAGAGGAUAUACAGUUUAUUACAUGAGGAUCACCCAUGUUCUUCAAUGUAUAUAAGUAGAAGGCUAAGGAA [EX-5 Malc#5] (puzzle: Exclusion 5)”, the “apparent KD of MS2 coat protein” value is, setting by setting: under setting [1], 132 nM; under setting [2], 25.2 nM; under setting [3], 30 nM.
With “CUUUUGUGAGGAUAUUAGUAGUAAAUAAAUAAAUUUACUACUGAGAAGGCACAUGAGGAUCACCCAUGUUCCUC [salish99_ex4_r3_060] (Eterna round: R96, puzzle: Exclusion 4)”, the “apparent KD of MS2 coat protein” value runs as follows: (input ligand: FMN 200 uM) 703 nM; under setting [4], 38.5 nM; (input ligand: none) 40.9 nM.
As to “AUCGUACAGCAAAGCUGUACGAGUACAUGAGGAUCACCCAUGUAGGAUAUGGUACGCAAAGCGUGCUAGAAGGAUAUGAGAUUU [Mat - Exclusion NG 3 - Mod of JL - D101] (Eterna round: R96, puzzle: Exclusion NG 3)”, the “apparent KD of MS2 coat protein” value runs as follows: (input ligand: FMN 200 uM) 48.5 nM; under setting [4], 30.4 nM; (input ligand: none) 48.7 nM.
As to “AUGAUACAUGAGGAUCACCCAUGUUAGGAUAUACGCAUGCAUGCAUGCAUGCAUGCAAGUAGAAGGAACCAUGC [Design #2] (Eterna round: R97, puzzle: Exclusion 1)”, the “apparent KD of MS2 coat protein” value stood at 56.8 nM (input ligand: FMN 200 uM) and 48.2 nM (input ligand: none).
Consider “GUGUACAGAGGAUAUACAAGAGGAGUUACGAAAGUAACUUCACAUGAGGAUCACCCAUGUAGAAGGCUGUACAC [Dot plot directed v7] (puzzle: Exclusion 2)”, for which the “apparent KD of MS2 coat protein” value under setting [2] came to 21.2 nM.
As to “GCAGCUAAUGCAGGAUAUCAGCACGUGUAGUGCUGAGAAGGGCACAUGAGGAUCACCCAUGUGAUCAAUUAAUAUUAAUGCUGC [ENG1/11-B3] (Eterna round: R96, puzzle: Exclusion NG 1)”, the “apparent KD of MS2 coat protein” value turned out to be 328 nM (input ligand: FMN 200 uM), 16.2 nM under setting [4] and 20.5 nM (input ligand: none).
With “UUUUGCAAGCAAAUUGUCAACAUGAGGAUCACCCAUGUGGAAGCCUUGGAGGGUGGGACCGUAAGUAGAGCUCGUUU [Eternabot (L2) Solution 34] (Eterna round: R97, puzzle: Sensor, turn-off variant 1)”, the “apparent KD of MS2 coat protein” value is 38.1 nM (input ligand: FMN 200 uM) and 39.2 nM (input ligand: none).
In the same order, the values of “UGCAGACGAGGAUAUAAAUGAUAUAACAUGAGGAUCACCCAUGUACGAUCGAAUGAUCGUUUAGAAGGCGUCUGCU [E5/11-A3] (Eterna round: R97, puzzle: Exclusion 5)” are 14.1 nM and 15.5 nM.
For the sequence “AGUUAAGCAGGAUAUAUCCGGGAUAACAUGAGGAUCACCCAUGUGACCGCUUGAUAUCCUAUAGAAGGGCUUAAGA [Mod of ViennaUCT 25 - Jieux - Exclusion 5] (Eterna round: R97, puzzle: Exclusion 5)”, the “apparent KD of MS2 coat protein” value (input ligand: FMN 200 uM) was determined as 68.2 nM and the “apparent KD of MS2 coat protein” value (input ligand: none) was 27.4 nM.
As for “GGAUCGAAUGUGAGGAUAUGCUGGUCCUUGGAUCAGCAGAAGGCACAUGAGGAUCACCCAUGUGAAGACGGUCC [Eli bmx4 4.31] (Eterna round: R97, puzzle: Brourd's mod of Exclusion 4)”, the “apparent KD of MS2 coat protein” value by setting is: (input ligand: FMN 200 uM) 201 nM; (input ligand: none) 41.4 nM.
In the same order, the values of “CACCUGAGAGGAUAUACGUUGAUGUUAUGCUAUGGAAAGUUACAUGAGGAUCACCCAUGUAGAAGGCUCAGGUA [Eternabot (L2) Solution 48] (Eterna round: R97, puzzle: Exclusion 2)” are 75.4 nM and 18.8 nM.
On to “GUUAACGAAGAGGAUAUAUGAUAUCAAAGCUUCAUAGAAGGCUUCACAUGAGGAUCACCCAUGUGAUCUUCAAU [jl-ex6-4.08 ViennaUCT mod] (Eterna round: R97, puzzle: Exclusion 6)”, for which the “apparent KD of MS2 coat protein” value reads like this: (input ligand: FMN 200 uM) 232 nM; (input ligand: none) 42.6 nM.
As to “CUUCAAGCACCAGAGCUCACACUUAUACCUGCUCUGGUGACAUGAGGAUCACCCAUGUUUUUUGCCCGUCUUAUCUU [Sensor v3, turn-off variant 2 (MOD of Leso v.2)] (puzzle: Sensor v3, turn-off variant 2)”, the “apparent KD of MS2 coat protein” value amounted to 92.8 nM under setting [1], 276 nM under setting [2] and 115 nM under setting [3].
In the same order, the values of “GGUCAAGAGCAGCUCCGCGCUGCCAUUGACCGCUCAUUUACAUGAGGAUCACCCAUGUUUUUUGCUCGUCUUAUUAC [Somabi] (puzzle: Sensor v3, turn-off variant 2)” are 18.5 nM, 53.2 nM and 18.8 nM.
Take “CUACCCUGAGGAUAUCCACCGUGAUACAUGAGGAUCACCCAUGUUAAUGCCUGAGUUCCCGGAGAAGGCAGAUUCC [Megrez2] (Eterna round: R97, puzzle: Exclusion 5)”: the “apparent KD of MS2 coat protein” value came to 27.2 nM (input ligand: FMN 200 uM) and 30.5 nM (input ligand: none).
Take “GCGGAGUGAGGAUAUAGAACUUAAGGUACCAAUUAGGUACCCUAGAAGGCACAUGAGGAUCACCCAUGUACCGC [Eli x4 4.01] (Eterna round: R97, puzzle: Exclusion 4)”: the “apparent KD of MS2 coat protein” value was found to be 26.5 nM (input ligand: FMN 200 uM) and 28.6 nM (input ligand: none).
On to “CAUUGUUAUCGAGGAUAUCCUAUUGAGAUUCUAGGAGAAGGCGGACUAAACAUGAGGAUCACCCAUGUGGGACGGAUGCUAGGG [Ex NG1 #30] (Eterna round: R96, puzzle: Exclusion NG 1)”, for which the “apparent KD of MS2 coat protein” value was 31.4 nM (input ligand: FMN 200 uM), 19.8 nM under setting [4] and 25.2 nM (input ligand: none).
Consider “AAUAAUUGUGACUUGGGUGACAUGAGGAUCACCCAUGUCACAAGCUUGUUGCUCGUCUUAUAAUUAACCCAUGUCAC [LRO Sensor-off var1-25 mod of Stov1-13-A1 by Brourd] (Eterna round: R97, puzzle: Sensor, turn-off variant 1)”, for which the “apparent KD of MS2 coat protein” value is, setting by setting: (input ligand: FMN 200 uM) 48.1 nM; (input ligand: none) 40.9 nM.
As for “AUUUAAUUUAAUAAGAUCACAUGAGGAUCACCCAUGUAUAUAUAGGAUAUCAGCUCGAAUAGAGCUGAGAAGGAUAUAUACAUG [ExNG3/8-A4] (Eterna round: R96, puzzle: Exclusion NG 3)”, under setting [4], the “apparent KD of MS2 coat protein” value was 15.4 nM.
In the case of “AGAUAGUGGUGAGGAUAUCAGAAUAGAAAGAAAUGAGAAGGCACACAUGAGGAUCACCCAUGUGAGUUCUUGAGAUUACAUGGU [Prohibition 41 - Jieux - Exclusion NG 1] (Eterna round: R96, puzzle: Exclusion NG 1)”, under setting [4], the “apparent KD of MS2 coat protein” value came out at 14.4 nM.
Take “GCGGGUUUUUUGUUCGUUUACAUGAGGAUCACCCAUGUGUCUUCGCGUUCGGGUUCGGGCGGGCUUGGGCUUGGGCG [-26.2, -50.6, A 8%] (Eterna round: R97, puzzle: Sensor, turn-off variant 1)”: the “apparent KD of MS2 coat protein” value worked out at 47.4 nM (input ligand: FMN 200 uM) and 47.8 nM (input ligand: none).
Regarding “GGGCCCGGUGUGAGGAUAUGUGAUCGGAAAUGAUCGUAGAAGGCACAUGAGGAUCACCCAUGUAAGCCGGGCCC [-31.3, -29.2 kcal, A 26%, 2-0] (Eterna round: R97, puzzle: Brourd's mod of Exclusion 4)”, the “apparent KD of MS2 coat protein” value (input ligand: FMN 200 uM) came to 34.2 nM and the “apparent KD of MS2 coat protein” value (input ligand: none) is 289 nM.
“AAUCCACAUGAGGAUCACCCAUGUCAGGAUAUCGCGCGCGCGUUUUCGGUCUUUCGCGCGAGAAGGGACGGCUG (puzzle: Exclusion 1)”: under setting [2], the “apparent KD of MS2 coat protein” value was 16.3 nM.
As for “CAAAAUGUAUAAGGAUAUCUCGCCAAUAAAGGCAGAGAAGGUAUACCCACUUGAGGAUCACCCAAGUCAGGUGUGCCUGGUGGA [Mutated MS2 EX1.24] (Eterna round: R96, puzzle: Exclusion NG 1)”, the “apparent KD of MS2 coat protein” value was determined as 7.87 nM (input ligand: FMN 200 uM), 7.61 nM under setting [4] and 10.9 nM (input ligand: none).
